Changes are numbered by the printed parent chain.

17 molecules from US20260209386A1 (MYTHIC THERAPEUTICS, published 2026) can be followed below.

The test concerns the target T1, Human PTK7 Protein, His Tag (Acro Biosystems) (human, UniProt Q13308 31-704).
T1 construct: Bought His-tagged protein; also called CCK4; not shown: His tag
T1 sequence: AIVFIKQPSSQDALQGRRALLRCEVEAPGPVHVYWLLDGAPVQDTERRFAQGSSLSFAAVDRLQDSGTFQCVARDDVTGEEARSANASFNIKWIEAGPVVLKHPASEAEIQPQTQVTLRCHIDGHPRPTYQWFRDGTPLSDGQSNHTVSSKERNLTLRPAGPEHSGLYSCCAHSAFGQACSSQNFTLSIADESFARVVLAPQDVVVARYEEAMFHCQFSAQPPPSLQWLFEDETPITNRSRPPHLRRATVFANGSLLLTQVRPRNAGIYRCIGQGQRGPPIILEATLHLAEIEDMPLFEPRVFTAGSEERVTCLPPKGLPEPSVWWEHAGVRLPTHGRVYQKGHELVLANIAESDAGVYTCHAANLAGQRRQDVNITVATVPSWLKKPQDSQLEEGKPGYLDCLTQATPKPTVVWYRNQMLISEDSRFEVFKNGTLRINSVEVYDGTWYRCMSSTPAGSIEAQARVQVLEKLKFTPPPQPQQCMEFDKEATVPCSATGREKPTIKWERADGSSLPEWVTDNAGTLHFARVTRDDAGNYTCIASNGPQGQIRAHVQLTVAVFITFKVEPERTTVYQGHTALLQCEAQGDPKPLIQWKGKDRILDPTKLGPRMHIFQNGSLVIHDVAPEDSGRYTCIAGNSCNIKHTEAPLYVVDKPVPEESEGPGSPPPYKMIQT
Nature of the test: BLI (Octet), antibody on anti-human Fc sensor, 50 nM PTK7; grade 2 = substantially similar binding relative to parent. A general note: BLI is a label-free optical method that tracks binding on a fibre tip over time.

B1: MYT11029 (antibody, V domains shown)
VH: EVQLVESGGGLVQPGGSLRLSCTASGLHLSSYWMSWVRQAPGKGLEWVGVISAGGNTYYANWAKGRFTISRDTSKNTVYLQMNSLRAEDTAVYFCARGDDGYTNAAYVSNLWGQGTLVTVSS
VL: EIVMTQSPSTLSASVGDRVIITCQASQSISSWLSWYQQKPGKAPKLLIYKASTLASGVPSRFSGSGSGAEFTLTISSLQPDDFATYYCQSYFDSTTIAFGQGTKLTVL
notes: MYT9361 HC variant
For B1, the binding result is “binds”.

B2: MYT11040 (antibody, V domains shown)
VH: B1 VH with H28S, A53H
VL: B1 VL
notes: MYT9361 HC variant
For B2, the binding result was “binds”.

B3: MYT11044 (antibody, V domains shown)
VH: B1 VH with H28S, T57H
VL: B1 VL
notes: MYT9361 HC variant
Turning to B3, the binding result is recorded as “binds”.

B4: MYT11038 (antibody, V domains shown)
VH: B1 VH with H28S, I51H
VL: B1 VL
notes: MYT9361 HC variant
As to B4, the binding result is reported as “binds”.

B5: MYT11035 (antibody, V domains shown)
VH: B1 VH with H28S, M34H
VL: B1 VL
notes: MYT9361 HC variant
As to B5, the binding result is “binds”.

B6: MYT11043 (antibody, V domains shown)
VH: B1 VH with H28S, N56H
VL: B1 VL
notes: MYT9361 HC variant
On to B6, for which the binding result was “binds”.

B7: MYT11036 (antibody, V domains shown)
VH: B1 VH with H28S, S35H
VL: B1 VL
notes: MYT9361 HC variant
As to B7, the binding result is “binds”.

B8: MYT11045 (antibody, V domains shown)
VH: B1 VH with H28S, Y58H
VL: B1 VL
notes: MYT9361 HC variant
Turning to B8, the binding result is “binds”.

B9: MYT11032 (antibody, V domains shown)
VH: B1 VH with H28S, S31H
VL: B1 VL
notes: MYT9361 HC variant
In the case of B9, the binding result is on record as “binds”.

B10: MYT11039 (antibody, V domains shown)
VH: B1 VH with H28S, S52H
VL: B1 VL
notes: MYT9361 HC variant
Consider B10, for which the binding result is reported as “binds”.

B11: MYT11034 (antibody, V domains shown)
VH: B1 VH with H28S, W33H
VL: B1 VL
notes: MYT9361 HC variant
In the case of B11, the binding result is “binds”.

B12: MYT11030 (antibody, V domains shown)
VH: B1 VH with H28S, L29H
VL: B1 VL
notes: MYT9361 HC variant
For B12, the binding result is recorded as “binds”.

B13: MYT11041 (antibody, V domains shown)
VH: B1 VH with H28S, G54H
VL: B1 VL
notes: MYT9361 HC variant
With B13, the binding result is reported as “binds”.

B14: MYT11046 (antibody, V domains shown)
VH: B1 VH with H28S, Y59H
VL: B1 VL
notes: MYT9361 HC variant
B14: the binding result is “binds”.

B15: MYT11037 (antibody, V domains shown)
VH: B1 VH with H28S, V50H
VL: B1 VL
notes: MYT9361 HC variant
B15: the binding result is “binds”.

B16: MYT11042 (antibody, V domains shown)
VH: B1 VH with H28S, G55H
VL: B1 VL
notes: MYT9361 HC variant
B16: the binding result is recorded as “binds”.

B17: MYT11031 (antibody, V domains shown)
VH: B1 VH with H28S, S30H
VL: B1 VL
notes: MYT9361 HC variant
B17: the binding result is recorded as “binds”.
